From a protein production outcome set (Wang et al. 2014)

Assay: label from the status in PepcDB records

In the case of “MSALEPDDPRSVGEYRLLGRLGAGGMGRVFLGRSPGGRLVAVKVVHAELLRRPEFRDRFRREVQAARMVSGAFTAPVVDADPDAPLPWLVTSYIAGPSLEQAVAERGPFDPQAVLTLAAGLAEALVSIHAAHLVHRDLKPSNVLLAEDGPRVIDFGIVRSVDADSLTGSGHMAGSPGFMSPEQVNGDEVTWASDVFCLGAVLAFAATGTNPFGAGPTPALLYRVVHNAPDVAAVADPALRSLIADCLAKDPAHRPAPREILARIGPLGGESATALPHAQQWTPAARPTRADAVPTRIVPPVAAPPAHQHTRVDTSPAQVYPPAPAPADVRPTATGDGGRRSRRAFLFSGAGALAALGVGTGFWLNRPADPDPAEGSAPAPSPSSAPSPPPGPVGLWPLDEASGQVARDTAGGHDGTVTGVAWQGAGEGAAFDGTGSQIVTAGPVLQTGAGRSFTVAAWVRLSAVPGVFATAVSQDSADASGFYLQYSSEDQGWAFARPGLRAVGRTAPAAHVWTHLTGVCDGPARKLHLYVNGVQEAVVEDTGPAPATGAFMIGRASFDGQPRDFFPGAIRDVRAFDRALGPARVAQLAQLG”, the protein production is reported as “failed”.

For “MSKHTKFSPEVRDRAIRMVYEVRESRTSQWAAIEAVASKIGCTAQTLSSWIRKAAAPAAPSASGTDARVKELEREVRELKRANEILKVASAFSAQAELDRRLK”, the protein production was “failed”.

With “METAITRMLGIRYPIVAAPMFLVSNAPLLQAVAEAGGIGVIPSLNFRTHQAFREFLESFPEGVPFGVNLILKGNPRLEEDLEAVVERRVPLVVTSLGDPTRVVERVKAYGGVVWCDVVGLRHGRKAVEAGADALVAVACGAGGHAGRVSPFVLGPWLREELGVPVLIAGGIATGRQVLAALALGDGVYIGTRFIATLESGAPLEYKEALLRAQPEDIEYTPEVTGVPANFLRESLERFRQGGGKAWKEVYSAGHGVAFIREIPSAKEVVARLVEEYRAAKAGLP” the protein production was “failed”.

For “MFHYTVDVSTGMNETIERLEESLKQEGFGVLWQFSVTEKLQEKGLDFSTPMVILEVCNPQEAARVLNENLLVGYFLPCKLVVYQENGTTKIGMPKPTMLVGMMNDPALKEIAADIEKRLAACLDRCR”, the protein production was “not failed”.

For “MSGLDPARSILQGSAEGPVIATGEALSFWGGVDPATGCVIDVHHPLHGVPLTGSILMMPSSRGSCTGSGVLLDLVLTGRGPAALVFSEPEDVLTLGALIASEMFGKPLPVL”, the protein production was “failed”.

In the case of “MTKFKGIIYASLGAAFFGISSIIAGLLFNRCSIEPGWLVTTRMLFSGLLLLAWLAITKHNIFSVWSSVKSSLRIVAFGIFGVLFAQSSFLLSVYYGNAAIATILQSLGPSIIIIILAIKSKAIPRRLDIIAIFLSLIGVFLLVTNGNIGELSFSASALVWGLLSALGVCAYTLIPCPLIKEHPPLSLVAWALLIGGVISNFLHPVTNLPKNFDQTDLLLVSLIVVVGTLLAYSLYINSLKYTEPHIVGMLGMLEPVTAILISTLFLGVSFLGFQQLGIFVVFLSLFLINFPAKKK”, the protein production is reported as “failed”.

For “KELIQNIIEESYTDSQFTLSVLSEKLDLSSGYLSIMFKKNFGIPFQDYLLQKRMEKAKLLLLTTELKNYEIAEQVGFEDVNYFITKFKKYYQITPKQYRE”, the protein production was “not failed”.

With “MKRMHNPAHPGEVLREYLGELTVTNAAAKLGVSRVALSRILNGTNGISADMALRLEDALGTSAEMWAAMQFKYDLWVASQQPRPKITRLHV” the protein production was “failed”.

With “MMLLLPEFGYVSLLLAVCVGVATALLTFSGYTLRWSGTYRLARCWTLVLFGLVLFAFVALTLSVVQDDFSVNYVAQHSHRDLPLGLKIAAVWGGHEGSLLLWLLCLSGWSATFACRYRKAMSDLFPLTLAMLAVIATALLVFIVFFSDPFVRLFPPAVAGRDLNPMLQHIGLILHPPLLYLGYGGLTVSAALALAALIHGEFTAPAAWICWRWTLPAWSLLTLGIILGSWWAYNELGWGGWWFWDPVENASLLPWLTASALLHSLSVTRMRGIFRHWSLILALLTFILCLLGTLIVRSGILVSVHAFALEHDRAVPLFILFACLSMAALAVYGWRAQLVHSAARFSGWSREMAILLVLLLFSAVALVVLLGTLYPMIYGLAGWGKISVGAPYFNRVLLPFAGLMLLLIGVAAGGYWKRSTRWPVWHLGVTLAVGVVTALVLWPYGYDVALASGLIGWVMAAQWLQPLLALRQQLPALLAHTGVVLFALGIAFSAGSKQEISANVGQGEQVTLGDYQFHFLQLDLVAAQNYTAEQAVIAIYRGDSPIARVIPERRYYNARKQQMIEPGIAWGPIREWYAVMGEKTGENRYAMRFYVQTGVRWVWGGGMLMVAGALLGWFRGRRVYD” the protein production was “failed”.

For “VGKPKMDVDLLQVDADLKKEIFDAYYNTMKTAVMTEEKLAREVEIDKVKDTVKEVYAEKFSEHEEEAQLLKEVKQIAEDLEKDVVRELITIDKIRPDGRKLDEIRH”, the protein production was “not failed”.

In the case of “MESIWRIATGQDPSREDYEGIEFWSNPERSGWLTKQGDYIKTWRRRWFVLKRGKLLWFKDQAAAGIRGSTPRGVISVGDCLTVKGAEDVVNKPFAFELSSGSYTMFFIADNEKEKEEWINSIGRSIVQHSRSVTDSEVLDYDHRR”, the protein production is reported as “failed”.

With “MKPRNIAIACGVAGVAVSLAAATGIVYHKQIKSAASLKRLTGYADGYDLYAIDIAYDYDLNRIIAAGVRDDQAYIDAVVAQVLPGVPVHVQAPQFACSAFVAVDAEGRVRTGRNYDFKDDTSALLVRNHPRGGYASIGFAALNNLGDNTPLDSVAGRAAALMGPFGQLDGVNECGVSIAVLTLDSKPCDQDAQRPVINTSLAIRLVLDRAATTQEAVDLLSAYDMHAMAGRDYHFFINDAAGDARVVEWDPRDPDRAFKATPVRQVTNFYACYGDEVLPNQKNGELGHGKERAIAIADVLDAHVGAQDEAVAWKALRAAAQEPNPKDITSNTQWSVVFDNTEPAAAITLRRHWGDVDAFAL” the protein production was “failed”.

For “MQTLNVLDNRFSPFNTYSTLSTDALVAETFTNTIFDKRQILALMTQLQTTLDIDELLSIFAVEATRYVDFSGLYFKSQNLNTVLFGSRKAKKEQCFELKIEDNFIGTLSYGINSPISLTNFKVLEQLHLCLLHPIKNAIAYHTAMQLAMQDGLTGLGNRRYFDEQLKRSMHNANRHHSLVGLVLGDLNKFKAINDTHGHIAGDTVLQEFANVLRLCTRDSDSLFRFGGDEFAIIVENANDTALAIIENRINLALASNVQLNKYQLGCSIGSTFMNRADNELSFFERADEILYRRKMQVSSHLSVV”, the protein production was “failed”.

In the case of “MVERLLEIIERSLRKCPWLEKQSIETLLEALASEIEEVAEAVKKNDLANLEEEIGDLIYDALLVAAVAQRDYGIDLESAIQKVVEKISHRKPWLFWEEKISLEEAEKIWKERKKKI”, the protein production is reported as “not failed”.

With “MLTTQITQTYHLTTPIISAGMAFVATPKLAAAVSNAGGMGTFSAFMSPPEELRALIRQTRSLSDRPFGIDFITAAANDDHIAICMAERVPVVIFFWSFPPLDWVTQLQNAGVKVWMQVGSLAEATQAKAQGFDAIIAQGQEGGGHNRSEASIFSLLPAICREVAPIPVIAAGGIIDGRGLVAALALGAEAVWCGTRFLASEEAYAHPEYKARVVTATVGDTTRTTLFGPEMPGQLMRVLRNLAVNQWGDRVADATKHGPTQPAIGSTILGGQALPMPKFSAILPTPDTSGDFEEMCLTAGESSGNITAIKSARDILWEMENEALDLLTYRLQAITKEQNLMAAG” the protein production was “failed”.

For “QAQITGRPEWIWLALGTALMGLGTLYFLVKGMGVSDPDAKKFYAITTLVPAIAFTMYLSMLLGYGLTMVPFGGEQNPIYWARYADWLFTTPLLLLDLALLVDADQGTILALVGADGIMIGTGLVGALTKVYSYRFVWWAISTAAMLYILYVLFFGFTSKAESMRPEVASTFKVLRNVTVVLWSAYPVVWLIGSEGAGIVPLNIETLLFMVLDVSAKVGFGLILLRSRAIFGEAEAPEPSAGDGAAATS”, the protein production was “not failed”.

In the case of “MTPHATPAPRVSAIVSLYNAERFVRGCLDDLLGQTLADSLEIIVIDACSPQGEGAIVQDYMRDHPNIVYVRTDEREGVYASWNRGVRLARAPYVTNANADDRHREDALERLAAALDEAPEAGFAYGDCRVGQTENERYADNAGQRVMRFPDFFAPATLLYCQLGPQPLWRRSVHDVVGFFDESYRACADWDFDIRLAAAFRGIHVPDALGLYLEHEAAITFRDDTMTRENDRVQRQWQHPEAVEERYRAAGVPCHTAEERALVHFDMALRALRFYPPWCYGAPAHNPGFARRCLRHALRLAPALAPAKELLALPDAVLTALDDLPSPLGLPSQATLAGVAAPLEHHHHHH”, the protein production is reported as “failed”.

In the case of “IVMADWLKIRGTLKSWTKLWCVLKPGVLLIYKTQKNGQWVGTVLLNACEIIERPSKKDGFCFKLFHPLEQSIWAVKGPKGEAVGSITQPLPSSYLIIRATSESDGRCWMDALELALK”, the protein production is reported as “not failed”.
